Measurements reported in IntAct's records for PubMed 18946488.

B1: Rho-related GTP-binding protein RhoE (Mus musculus), P61588 (parent)
chain: MKERRASQKLSSKSIMDPNQNVKCKIVVVGDSQCGKTALLHVFAKDCFPENYVPTVFENYTASFEIDTQRIELSLWDTSGSPYYDNVRPLSYPDSDAVLICFDISRPETLDSVLKKWKGEIQEFCPNTKMLLVGCKSDLRTDVSTLVELSNHRQTPVSYDQGANMAKQIGAATYIECSALQSENSVRDIFHVATLACVNKTNKNVKRNKSQRATKRISHMPSRPELSAVATDLRKDKAKSCTVM

Variants of: B1
Settings: with rock1_mouse Rock1, P70335
Chain of rock1_mouse Rock1, P70335 (P70335 whole entry): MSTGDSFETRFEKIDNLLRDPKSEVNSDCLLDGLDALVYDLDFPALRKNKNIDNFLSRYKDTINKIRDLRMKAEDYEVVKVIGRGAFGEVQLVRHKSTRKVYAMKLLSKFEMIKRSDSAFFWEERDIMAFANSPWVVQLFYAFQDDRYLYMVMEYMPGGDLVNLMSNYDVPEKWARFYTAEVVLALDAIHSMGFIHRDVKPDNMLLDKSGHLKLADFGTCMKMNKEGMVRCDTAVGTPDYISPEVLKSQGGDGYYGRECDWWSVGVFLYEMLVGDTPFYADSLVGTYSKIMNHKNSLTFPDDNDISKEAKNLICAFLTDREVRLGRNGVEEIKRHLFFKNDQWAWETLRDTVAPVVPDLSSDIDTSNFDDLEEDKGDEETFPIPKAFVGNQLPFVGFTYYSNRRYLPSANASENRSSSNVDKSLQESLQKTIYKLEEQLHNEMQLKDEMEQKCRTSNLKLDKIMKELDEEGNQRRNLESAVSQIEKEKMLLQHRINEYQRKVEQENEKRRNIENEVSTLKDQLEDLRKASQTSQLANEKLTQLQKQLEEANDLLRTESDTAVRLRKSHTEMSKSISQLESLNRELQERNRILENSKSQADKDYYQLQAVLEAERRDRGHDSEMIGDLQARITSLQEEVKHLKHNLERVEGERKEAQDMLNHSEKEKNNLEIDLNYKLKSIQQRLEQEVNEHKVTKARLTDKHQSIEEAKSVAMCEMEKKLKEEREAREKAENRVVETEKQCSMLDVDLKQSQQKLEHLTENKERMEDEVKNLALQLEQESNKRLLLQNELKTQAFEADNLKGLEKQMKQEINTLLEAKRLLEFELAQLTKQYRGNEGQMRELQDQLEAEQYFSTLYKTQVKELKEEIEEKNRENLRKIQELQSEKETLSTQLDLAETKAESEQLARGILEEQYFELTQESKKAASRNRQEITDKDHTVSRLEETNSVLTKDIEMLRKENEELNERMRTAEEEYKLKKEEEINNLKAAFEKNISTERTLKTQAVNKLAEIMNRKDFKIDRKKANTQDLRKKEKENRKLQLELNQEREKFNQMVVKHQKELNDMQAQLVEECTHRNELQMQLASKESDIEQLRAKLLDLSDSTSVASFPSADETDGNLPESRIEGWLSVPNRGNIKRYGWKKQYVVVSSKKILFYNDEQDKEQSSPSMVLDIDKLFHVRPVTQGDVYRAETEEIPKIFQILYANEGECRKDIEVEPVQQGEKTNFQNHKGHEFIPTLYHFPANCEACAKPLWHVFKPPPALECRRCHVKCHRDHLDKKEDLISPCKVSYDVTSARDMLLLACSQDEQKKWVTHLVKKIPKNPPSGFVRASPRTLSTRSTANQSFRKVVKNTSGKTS

effect of a mutation on the interaction | Variant
disrupting interaction | MKERRASQKLSSKSIMDPNQNVKCKIVVVGDSQCGKTALLHVFAKDCFPENYVPTVFENYTASFEIDTQRIELSLWDTSGSPYYDNVRPLSYPDSDAVLICFDISRPETLDSVLKKWKGEIQEFCPNTKMLLVGCKSDLRTDVSTLVELSNHRQTPVSYDQGANMAKQIGAARYIECSALQSENSVRDIFHVATLACVNKTNKNVKRNKSQRATKRISHMPSRPELSAVATDLRKDKAKSCTVM [T173R]

Variants of: B1
Settings: with rock1_mouse Rock1, P70335
Remark: another data set of the same source

effect of a mutation on the interaction | Variant
disrupting interaction | MKERRASQKLSSKSIMDPNQNVKCKIVVVGDSQCGKTALLHVFAKDCFPENYVPTVFENYTASFEIDTQRIELSLWDTSGSPYYDNVRPLSYPDSDAVLICFDISRPETLDSVLKKWKGEIQEFCPNTKMLLVGCKSDLRTDVSTLVELSNHRQTPVSYDQGANMAKQIGAATYIECSALQSENSVRDIFHRATLACVNKTNKNVKRNKSQRATKRISHMPSRPELSAVATDLRKDKAKSCTVM [V192R]
